Test results published in article PMC9459030 (Journal of Ginseng Research, 2021).
Where no end group is shown, it is not given here. [ ]: non-standard residue; d: D form. pS = N[C@@H](COP(=O)(O)O)C(=O)O

Target: T1, 14-3-3 ζ protein (UniProt P63104 1-245)
T1 sequence (looked up): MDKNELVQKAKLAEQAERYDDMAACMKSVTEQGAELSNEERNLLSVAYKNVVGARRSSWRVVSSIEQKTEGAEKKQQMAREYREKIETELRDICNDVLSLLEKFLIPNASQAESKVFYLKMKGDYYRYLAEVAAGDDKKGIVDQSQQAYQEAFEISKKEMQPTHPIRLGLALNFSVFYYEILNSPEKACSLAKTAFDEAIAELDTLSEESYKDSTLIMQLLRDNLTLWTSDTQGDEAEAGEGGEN
Assay: BLI

Kd: 46.8 µM
koff: 0.0185 s⁻¹
kon: 579 M⁻¹ s⁻¹
Binder: GRPRTT[pS]FAE [p-Ser9 GSK 3β polypeptide (Gly3-pSer9-Glu12)]
